From patent publication US20120064125A1 (priority 2009, published 2012)

System: USA300 strain LAC biofilm
Test: Protease and DNaseI treatment of USA300 titanium biofilms (CLSM, COMSTAT)
Assay type: cell-based, Staphylococcus aureus
Settings: 2 day biofilm, Proteinase K 2 μg/mL or DNaseI 0.5 Units/mL
Description: FIGS. 4A-B. Protease and DNaseI treatment of USA300 titanium biofilms. Biofilms of LAC with plasmid pCM12 were grown for two days on titanium. Biofilms were either untreated or grown in the presence of Proteinase K or DNaseI. For treatments, Proteinase K was added to 2 μg/mL and DNaseI was added to 0.5 Units/mL to the flow cell media. At 6 and 22 hr, CLSM images were obtained and analyzed. (FIG. 4A) Representative CLSM image reconstructions generated from a z series. Each side of the image grid square is 20 μm. (FIG. 4B) COMSTAT analysis of images represented in terms of average thickness (μm) and biomass (μm^3/μm^2). Green triangles represent untreated biofilm, red circles represent DNaseI treatment, and black squares represent Proteinase K treatment. Error bars represent standard deviation.
Biofilm Assays. For biofilms grown on glass, flow cell biofilm growth, confocal scanning laser microscopy (CSLM), and computer image analysis were performed as previously described (Boles and Horswill, 2008). […] For biofilm dispersal tests, AIP type I (AIP-I) was synthesized and quantified using an intein system (Malone et al., 2007), and biofilm dispersal tests were performed as previously described (Boles and Horswill, 2008). […] LAC biofilm integrity was monitored at 6 hr and 22 hr, and COMSTAT analysis was performed to quantify the biofilm properties. […]

B1: proteinase K: Proteinase K (Research Productions International), protease added to flow cell media (protein, UniProt P06873 106-384, looked up)
Proteinase K: AAQTNAPWGLARISSTSPGTSTYYYDESAGQGSCVYVIDTGIEASHPEFEGRAQMVKTYYYSSRDGNGHGTHCAGTVGSRTYGVAKKTQLFGVKVLDDNGSGQYSTIIAGMDFVASDKNNRNCPKGVVASLSLGGGYSSSVNSAAARLQSSGVMVAVAAGNNNADARNYSPASEPSVCTVGASDRYDRRSSFSNYGSVLDIFGPGTSILSTWIGGSTRSISGTSMATPHVAGLAAYLMTLGKTTAASACRYIADTANKGDLSNIPFGTVNLLAYNNYQA
LAC biomass detached from the titanium surface (6 hr): approximately 93%
LAC biomass detached from the titanium surface (22 hr): all of the LAC biomass had detached
